Test [1] concerns the target HLA-B*57:01. The test can be described thus: IEDB peptide-MHC binding, purified MHC/competitive/radioactivity; filed as Kd, often an IC50 or EC50 that approximates it; ≥ and ≤ were set here for values at or beyond the usual limits of such assays.
In test [2] the target is HLA-A*02:12. Nature of the test: IEDB peptide-MHC binding, purified MHC/competitive/fluorescence; filed as Kd, often an IC50 or EC50 that approximates it; ≥ and ≤ were set here for values at or beyond the usual limits of such assays. The settings on record: source organism: Cryptosporidium parvum Iowa II.
Test [3] concerns the target HLA-A*02:19. The test is described as above. The settings on record: source organism: Cryptosporidium parvum Iowa II.
The target in test [4] is HLA-A*03:01. The description is as above. The settings on record: source organism: Cryptosporidium parvum Iowa II.
The target of test [5] is HLA-A*26:01. The description is as above. The settings on record: source organism: Cryptosporidium parvum Iowa II.
For test [6], the target named is HLA-A*29:02. The description is as above. The settings on record: source organism: Cryptosporidium parvum Iowa II.
In test [7] the target is HLA-B*18:01. Described as above. The settings on record: source organism: Cryptosporidium parvum Iowa II.
The target of test [8] is HLA-B*27:03. Described as above. The conditions noted are these: source organism: Cryptosporidium parvum Iowa II.
Test [9] concerns the target HLA-B*39:01. The test is described as above. The conditions noted are these: source organism: Cryptosporidium parvum Iowa II.
For test [10], the target named is HLA-B*46:01. The description is as above. The settings on record: source organism: Cryptosporidium parvum Iowa II.
The target in test [11] is HLA-B*51:01. The test is described as above. The conditions noted are these: source organism: Cryptosporidium parvum Iowa II.
For a further test, the target named is HLA-A*02:01. Nature of the test: IEDB peptide-MHC binding, purified MHC/direct/fluorescence; filed as Kd, often an IC50 or EC50 that approximates it; ≥ and ≤ were set here for values at or beyond the usual limits of such assays.
The target in the next test is HLA-A*02:03. Described as above.
In test [12] the target is HLA-A*02:12. The description is as above.
Another test deals with HLA-A*02:16. The description is as above.
The target in test [13] is HLA-A*02:19. The test is described as above.
The target of test [14] is HLA-A*03:01. Described as above.
Test [15] addresses HLA-A*26:01. The test is described as above.
Test [16] concerns the target HLA-A*29:02. Described as above. The settings on record: source organism: Burkholderia mallei ATCC 23344.
Test [17] has as its target HLA-A*68:02. The description is as above.
The target in test [18] is HLA-B*15:01. Described as above.
A further test concerns the target HLA-B*15:17. The test is described as above. The settings on record: source organism: Burkholderia mallei ATCC 23344.
The target in test [19] is HLA-B*18:01. The test is described as above.
For test [20], the target named is HLA-B*27:03. Described as above.
For test [21], the target named is HLA-B*46:01. The description is as above.
Test [22] concerns the target HLA-B*51:01. The description is as above.
Test [23] addresses HLA-B*57:01. Described as above.
The target of test [24] is HLA-B*15:01. The test can be described thus: IEDB peptide-MHC binding, purified MHC/competitive/radioactivity; filed as Kd, often an IC50 or EC50 that approximates it; ≥ and ≤ were set here for values at or beyond the usual limits of such assays. The settings on record: source organism: Dengue virus 2 Jamaica/1409/1983.
For test [25], the target named is HLA-A*68:02. The test is described as above. The settings on record: source organism: Dengue virus 1 Brazil/97-11/1997.
The next test concerns the target HLA-A*02:11. Nature of the test: IEDB peptide-MHC binding, purified MHC/direct/fluorescence; filed as Kd, often an IC50 or EC50 that approximates it; ≥ and ≤ were set here for values at or beyond the usual limits of such assays.
The next test deals with HLA-A*24:03. Described as above.
In the next test the target is HLA-A*69:01. The test is described as above.
The target of test [26] is HLA-B*39:01. Described as above.
A further test concerns the target HLA-B*07:02. The description is as above.
The target of a further test is HLA-B*35:01. The description is as above.
A further test concerns the target HLA-A*01:01. The test can be described thus: IEDB peptide-MHC binding, purified MHC/competitive/fluorescence; filed as Kd, often an IC50 or EC50 that approximates it; ≥ and ≤ were set here for values at or beyond the usual limits of such assays. The settings on record: source organism: Influenza A virus (A/swine/Finistere/127/99(H3N2)).
Setting [27] is: source organism: Burkholderia mallei ATCC 23344.
Setting [28] is: source organism: Dengue virus 2 Jamaica/1409/1983.
[29] abbreviates: source organism: Burkholderia mallei.
Where [30] appears, read: source organism: Vibrio parahaemolyticus AQ3810.
Where [31] appears, read: source organism: Mycobacterium tuberculosis str. Haarlem.
[32] abbreviates: source organism: Cryptosporidium parvum Iowa II.

Usually Kd stands for a measure of binding affinity in units of concentration. Turning to LTSRENLLLG, the Kd with HLA-B*57:01 [1] (source organism: Dengue virus 3 Martinique/1243/1999) was 0.541 µM.

Turning to KIVPLPPMY, the Kd with HLA-A*02:12 [2] was not below 20 µM; with HLA-A*02:19 [3], not below 20 µM; in the test with HLA-A*03:01 [4], 0.796 µM; in the test with HLA-A*26:01 [5], not below 20 µM; with HLA-A*29:02 [6], 0.277 µM; in the test with HLA-B*18:01 [7], not below 20 µM. For the same sequence, the Kd with HLA-B*27:03 [8], with HLA-B*39:01 [9], with HLA-B*46:01 [10] and in the test with HLA-B*51:01 [11] was not below 20 µM each time.

On to QHAWPLPPL, for which the dissociation constant Kd with HLA-A*02:01 (setting [27]), with HLA-A*02:03 (setting [27]), in the test with HLA-A*02:12 [12] (setting [27]), in the test with HLA-A*02:16 (setting [27]), with HLA-A*02:19 [13] (setting [27]) and in the test with HLA-A*03:01 [14] (setting [27]) was not below 20 µM each time. The Kd with HLA-A*26:01 [15] (setting [27]), with HLA-A*29:02 [16], in the test with HLA-A*68:02 [17] (setting [27]), with HLA-B*15:01 [18] (setting [27]), with HLA-B*15:17 and with HLA-B*18:01 [19] (setting [27]) was not below 20 µM each time. Also, the equilibrium dissociation constant (Kd) with HLA-B*27:03 [20] (setting [27]), with HLA-B*46:01 [21] (setting [27]), with HLA-B*51:01 [22] (setting [27]) and in the test with HLA-B*57:01 [23] (setting [27]) was not below 20 µM each time.

Regarding ISRMLINRF, the Kd in the test with HLA-B*15:01 [24] worked out at 0.178 µM; in the test with HLA-B*57:01 [1] (setting [28]), 0.0159 µM.

QTSGTTTIFA: the Kd stood at 0.00212 µM with HLA-A*68:02 [25] and 0.454 µM with HLA-B*57:01 [1] (source organism: Dengue virus 1 Brazil/97-11/1997).

For RVVRPWGSY, the Kd with HLA-A*02:01 (setting [29]), with HLA-A*02:03 (setting [29]), with HLA-A*02:11 (setting [29]), in the test with HLA-A*02:12 [12] (setting [29]), with HLA-A*02:16 (setting [29]) and with HLA-A*02:19 [13] (setting [29]) was not below 20 µM throughout. The Kd with HLA-A*24:03 (setting [29]), in the test with HLA-A*26:01 [15] (setting [29]), in the test with HLA-A*68:02 [17] (setting [29]), with HLA-A*69:01 (setting [29]), in the test with HLA-B*18:01 [19] (setting [29]) and in the test with HLA-B*27:03 [20] (setting [29]) was not below 20 µM throughout. Besides, the Kd with HLA-B*39:01 [26] (setting [29]), in the test with HLA-B*46:01 [21] (setting [29]) and in the test with HLA-B*51:01 [22] (setting [29]) was not below 20 µM in each case.

As for EASTWLDIF, the Kd with HLA-A*02:01 (setting [30]), with HLA-A*02:03 (setting [30]), in the test with HLA-A*02:11 (setting [30]), with HLA-A*02:12 [12] (setting [30]), in the test with HLA-A*02:16 (setting [30]) and with HLA-A*02:19 [13] (setting [30]) was not below 20 µM each time. The Kd is not below 20 µM in the test with HLA-A*03:01 [14] (setting [30]); not below 20 µM with HLA-A*24:03 (setting [30]); not below 20 µM with HLA-A*26:01 [15] (setting [30]); not below 20 µM with HLA-A*69:01 (setting [30]); not below 20 µM with HLA-B*07:02 (setting [30]); 0.174 µM with HLA-B*15:01 [18] (setting [30]). Further, the dissociation constant (Kd) was not below 20 µM with HLA-B*18:01 [19] (setting [30]); not below 20 µM in the test with HLA-B*27:03 [20] (setting [30]); 0.016 µM with HLA-B*35:01 (setting [30]); not below 20 µM with HLA-B*39:01 [26] (setting [30]); not below 20 µM with HLA-B*46:01 [21] (setting [30]); not below 20 µM with HLA-B*51:01 [22] (setting [30]). Also, the Kd in the test with HLA-B*57:01 [23] (setting [30]) was not below 20 µM.

In the test with HLA-A*01:01, LASIDLKY showed a Kd of 3.46 µM.

As to EILWDVIPF, the Kd with HLA-A*02:01 (setting [31]), with HLA-A*02:03 (setting [31]), with HLA-A*02:12 [12] (setting [31]), with HLA-A*02:16 (setting [31]), with HLA-A*02:19 [13] (setting [31]) and with HLA-A*03:01 [14] (setting [31]) was not below 20 µM throughout. Moreover, the Kd was not below 20 µM with HLA-A*24:03 (setting [31]); not below 20 µM in the test with HLA-A*26:01 [15] (setting [31]); 6.5 µM in the test with HLA-B*07:02 (setting [31]); 0.191 µM with HLA-B*15:01 [18] (setting [31]); not below 20 µM with HLA-B*27:03 [20] (setting [31]); 0.003 µM with HLA-B*35:01 (setting [31]). Moreover, the Kd in the test with HLA-B*39:01 [26] (setting [31]), in the test with HLA-B*46:01 [21] (setting [31]), with HLA-B*51:01 [22] (setting [31]) and with HLA-B*57:01 [23] (setting [31]) was not below 20 µM throughout.

As to LPLESCFGV, the Kd with HLA-A*02:03 (setting [32]), with HLA-A*02:11 (setting [32]), with HLA-A*02:12 [12] (setting [32]), with HLA-A*02:19 [13] (setting [32]), in the test with HLA-A*03:01 [14] (setting [32]) and in the test with HLA-A*24:03 (setting [32]) was not below 20 µM each time. Further, the Kd in the test with HLA-A*26:01 [15] (setting [32]) is not below 20 µM; with HLA-B*15:01 [18] (setting [32]), not below 20 µM; in the test with HLA-B*18:01 [19] (setting [32]), not below 20 µM; with HLA-B*27:03 [20] (setting [32]) it was not below 20 µM; with HLA-B*46:01 [21] (setting [32]) it was not below 20 µM; in the test with HLA-B*51:01 [22] (setting [32]), 0.355 µM. For the same sequence, in the test with HLA-B*57:01 [23] (setting [32]), the Kd was not below 20 µM.

In the case of ISQGAGWSL, in the test with HLA-B*57:01 [1] (setting [28]), the equilibrium dissociation constant (Kd) was determined as 0.472 µM.

Source of the values: the Immune Epitope Database (IEDB).
